Assay [1] concerns the target T1, desthio-biotinilated Syt-1(97-421) (Rattus norvegicus (Rat)., UniProt P21707, desthiobiotin (conjugated with desthiobiotin-N-hydroxysuccinimide ester)).
T1 construct: Synaptotagmin 1, rat, cytosolic domain, amino acids 97-421; The phage-display methods also print Syt-1(197-421) for this antigen; also called rSyt-1(97-421); immobilized cytosolic rSyt-1(97-421); source: E. coli NEB-Express, purified (Ni beads, SUMO protease elution), conjugated to desthiobiotin-NHS ester
As to the kind of experiment: ELISA; phage ELISA: desthio-biotinilated Syt-1(97-421) immobilised overnight at 4°C on MaxiSorp plate; 25 μl phage supernatant in 5% skim milk PBS-T, 1 h RT; detected with anti-M13-HRP. The settings on record: one partner purified.

The target in assay [2] is T2, cytosolic (amino acids 97-421) domain of rat Syt-1 (Rattus norvegicus (Rat)., UniProt P21707).
T2 construct: Synaptotagmin 1, rat, cytosolic domain, amino acids 97-421; also called rSyt-1(97-421); Syt-1(97-421); source: E. coli NEB-Express, purified (Ni beads, eluted on column with SUMO protease)
Description: far-Western, overlay or dot blot; dot blot: ~1 μg target protein spotted on nitrocellulose; NbA51 or NbA91 labeled with AbberiorStar635p at 5 nM in 5% milk PBS-Tween20, 1 h. To be noted: both partners purified.

Assay [3] deals with T3, full-length rat Syt-1 fused to EGFP (Rattus norvegicus (Rat)., UniProt P21707).
T3 construct: Synaptotagmin 1, rat, full length; also called Syt1-EGFP; source: COS-7, transiently transfected, in fixed cells
As to the kind of experiment: immunostaining of cells or tissue; COS-7 cells transfected with Syt1-EGFP, fixed with 4% PFA, permeabilised; 50 nM fluorescent nanobody, 2 h RT. To be noted: one partner purified.

Assay [4] deals with T2, cytosolic (amino acids 97-421) domain …. As to the kind of experiment: MST; NbSyt1 labelled with Alexa647 in MST buffer with 0.05 % Tween, incubated with dilutions of purified Syt-1(97-421); NT.115Pico Monolith. To be noted: both partners purified.

Among the data in article doi:10.1101/2023.01.30.525828, “A versatile synaptotagmin-1 nanobody provides perturbation-free live synaptic imaging and low linkage-error in super-resolution microscopy” (bioRxiv, 2023) are binding result and Kd values, retold here.

By Kd is commonly meant the constant that tells how readily two partners part at equilibrium. Low values mean a tighter complex, high ones a looser complex.

T2 sequence (P21707 97-421): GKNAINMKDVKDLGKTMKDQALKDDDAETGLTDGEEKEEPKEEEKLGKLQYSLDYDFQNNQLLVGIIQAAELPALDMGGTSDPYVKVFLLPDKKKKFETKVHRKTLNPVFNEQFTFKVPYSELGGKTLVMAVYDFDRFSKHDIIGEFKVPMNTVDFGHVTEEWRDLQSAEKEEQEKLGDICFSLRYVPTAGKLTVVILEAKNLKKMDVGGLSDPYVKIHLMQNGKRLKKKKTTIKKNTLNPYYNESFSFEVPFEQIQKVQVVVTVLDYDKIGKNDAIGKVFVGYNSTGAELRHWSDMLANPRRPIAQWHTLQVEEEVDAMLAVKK
T1 sequence (P21707 97-421): as above
T3 sequence (P21707 whole entry, the tested form may be a part): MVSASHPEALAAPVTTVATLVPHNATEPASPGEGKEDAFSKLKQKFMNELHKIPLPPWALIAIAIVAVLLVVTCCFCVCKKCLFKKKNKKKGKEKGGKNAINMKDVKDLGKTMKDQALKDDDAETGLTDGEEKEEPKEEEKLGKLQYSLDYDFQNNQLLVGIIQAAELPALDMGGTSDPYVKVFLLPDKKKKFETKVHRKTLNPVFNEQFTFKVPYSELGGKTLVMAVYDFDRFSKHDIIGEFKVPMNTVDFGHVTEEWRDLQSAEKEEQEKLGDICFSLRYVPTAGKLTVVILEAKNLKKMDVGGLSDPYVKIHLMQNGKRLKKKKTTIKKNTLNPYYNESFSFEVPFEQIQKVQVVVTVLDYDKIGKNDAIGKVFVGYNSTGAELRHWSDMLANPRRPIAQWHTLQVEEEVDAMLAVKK

B1: clone A91 displayed on phage (VHH)
VHH: EVQLVESGGGLVQPGGSLRLSCVASGFPFSKYFMSWVRQAPGKGLEWVSTISSSGSTTTYTESVKGRFTISRDNAKNTLYLQMNNLKPEDTAVYYCEKGSWAPNNARGQGTQVS
notes: alpaca nanobody clone A91; One of the five clones positive in the phage ELISA; the fusion partner on the phage is surmised from the phagemid; also called NbA91
On to B1, for which the binding result in assay [1] is “binds”.

B2: NbA91 directly labeled with AbberiorStar635p (VHH)
VHH: B1 VHH
notes: alpaca nanobody clone A91; with one or two ectopic cysteines (at the C-terminus or at N- and C-termini); also called Nb-Ab635p
For B2, the binding result in assay [2] and in assay [3] was “binds” in each case.

B3: NbSyt1 labelled with Alexa647 (VHH)
VHH: EVQLEESGGGLVRPGGSLRLSCAASGFPFSKYFMSWVRQAPGKGLEWVSTISASGNYETYTESVKGRFTIARDNAKNTLYLQMNSLKPEDTAVYYCAKGSWARDMTRGQGTQVTVSS
notes: also called Fluorescent NbSyt1; source: E. coli SHuffle Express (NEB), purified (Ni beads, SUMO protease elution), labelled with maleimide fluorophore
B3 gave a Kd in assay [4] of 0.7 ± 0.3 nM.
